Where “and” joins values, the source holds several entries; their conditions need not be identical. Identical values can stand only once. Entries after “also recorded” stand apart in the source; their conditions may differ. Like-named read-outs stand apart in the source and are kept apart here.
Experiments:
R5 HIV-1 JR-FL = assay: Inhibition of replication in PBMC cultures, RT activity readout: HIV-1 JR-FL; format: cell-based
Procedure: (§1) Viruses: All virus isolates were grown and titered exclusively in stimulated PBMC as described previously. […] The HIV-2 isolates used in this study have been previously described (Owen, S. M., Ellenberger, D., Rayfield, M., Wiktor, S., Michel, P., Grieco, M. H., Gao, F., Hahn, B. H., and Lai, R. B. 1998. Genetically Divergent Strains of Human Immunodeficiency Virus Type 2 Use Multiple Coreceptors for Entry. J Virol 72:5425-5432) and were obtained from the NIH AIDS Research and Reference Reagent Program.
(§2) PA14 (Lot # DF-021204) was produced for reagent use in the Research & Development laboratories of Progenics Pharmaceuticals Inc.
(§3) Inhibition of HIV-1 and HIV-2 replication in PBMC cultures: PBMC were isolated from 34 healthy blood donors with Ficoll-Hypaque (all media from Cellgro, Herndon, Va.) and depleted of CD8+ cells using RosetteSep CD8 depletion cocktail (StemCell Technologies) according to the manufacturer's instructions. Equal numbers of cells from each donor were then separately stimulated with 5 ug phytohemagglutinin/ml (Sigma, St. Louis, Mo.) or with surface-immobilized anti-CD3 antibody OKT3 in RPMI 1640 medium containing 10% fetal calf serum, 100 Units of interleukin-2/ml (NIH AIDS Research and Reference Reagent Program), glutamine, and antibiotics (PBMC culture medium) as previously described. After 72 hours, equal numbers of PBMC stimulated by one of these two methods from each donor were combined for use in infection assays as follows. […] The virus inoculum was adjusted to 400 to 2,000 times the TCID50 per ml in PBMC culture medium, and a 50-ul aliquot was added to each culture. The inhibitory doses refer to the concentrations of the agents present at this point in the culture, when virus, cells, and inhibitors were all present at their final concentrations. Reverse Transcriptase (RT) activity was measured on Day 7 post infection (pi) for HIV-1 and Day 10 pi for HIV-2 by the Reverse Transcriptase Assay, Colorimetric kit, #11 468 120 910, Roche (Switzerland) according to the manufacturer's instructions with the following exception: neither ultracentrifugation nor PEG precipitation of the culture supernatants was performed before viral lysis.
(§4) The inhibition data were analyzed using GraphPad Prism software (GraphPad Software, San Diego, Calif.). A 4-parameter logistic fit was used calculate the concentration of inhibitor that afforded a 50% and a 90% reduction in RT activity. […] The % inhibitions where best-fit curve reached a top plateau, also as calculated by GraphPad Prism software, are reported as well as maximum percent inhibition (MPI). […] Inhibition curves with a poor sigmoid fit (R^2<0.7) were excluded from data analysis.

R5 HIV-2 A2267 = assay: Inhibition of replication in PBMC cultures, RT activity readout: HIV-2 A2267; format: cell-based
Procedure: as §1, §2, §3, §4

R5X4 HIV-2 310342 = assay: Inhibition of replication in PBMC cultures, RT activity readout: HIV-2 310342; format: cell-based
Procedure: as §1, §2
Inhibition of HIV-1 and HIV-2 replication in PBMC cultures: PBMC were isolated from 34 healthy blood donors with Ficoll-Hypaque (all media from Cellgro, Herndon, Va.) and depleted of CD8+ cells using RosetteSep CD8 depletion cocktail (StemCell Technologies) according to the manufacturer's instructions. […] Reverse Transcriptase (RT) activity was measured on Day 7 post infection (pi) for HIV-1 and Day 10 pi for HIV-2 by the Reverse Transcriptase Assay, Colorimetric kit, #11 468 120 910, Roche (Switzerland) according to the manufacturer's instructions with the following exception: neither ultracentrifugation nor PEG precipitation of the culture supernatants was performed before viral lysis. […]

R5 HIV-2 isolates = assay: Inhibition of replication in PBMC cultures, RT activity readout: panel of five R5 HIV-2 isolates; format: cell-based
Procedure: (§5) Two well-characterized R5 HIV-1 isolates were included for comparative purposes.
Viruses: All virus isolates were grown and titered exclusively in stimulated PBMC as described previously.
Equal numbers of cells from each donor were then separately stimulated with 5 ug phytohemagglutinin/ml (Sigma, St. Louis, Mo.) or with surface-immobilized anti-CD3 antibody OKT3 in RPMI 1640 medium containing 10% fetal calf serum, 100 Units of interleukin-2/ml (NIH AIDS Research and Reference Reagent Program), glutamine, and antibiotics (PBMC culture medium) as previously described. After 72 hours, equal numbers of PBMC stimulated by one of these two methods from each donor were combined for use in infection assays as follows. […] The virus inoculum was adjusted to 400 to 2,000 times the TCID50 per ml in PBMC culture medium, and a 50-ul aliquot was added to each culture. The inhibitory doses refer to the concentrations of the agents present at this point in the culture, when virus, cells, and inhibitors were all present at their final concentrations.
as §4
The panel was tested five times on a different PBMC donor pool each time, using the RT ELISA as a readout.

R5X4 HIV-2 isolates = assay: Inhibition of replication in PBMC cultures, RT activity readout: two R5X4 HIV-2 isolates; format: cell-based; conditions: result in words
Procedure: as §5, §1
Inhibition of HIV-1 and HIV-2 replication in PBMC cultures: PBMC were isolated from 34 healthy blood donors with Ficoll-Hypaque (all media from Cellgro, Herndon, Va.) and depleted of CD8+ cells using RosetteSep CD8 depletion cocktail (StemCell Technologies) according to the manufacturer's instructions. […] Reverse Transcriptase (RT) activity was measured on Day 7 post infection (pi) for HIV-1 and Day 10 pi for HIV-2 by the Reverse Transcriptase Assay, Colorimetric kit, #11 468 120 910, Roche (Switzerland) according to the manufacturer's instructions with the following exception: neither ultracentrifugation nor PEG precipitation of the culture supernatants was performed before viral lysis.
The inhibition data were analyzed using GraphPad Prism software (GraphPad Software, San Diego, Calif.). […]

[1] = test system: HIV-1 (CCR5-tropic virus); format: in vivo; conditions: for Mean log10 HIV RNA change: Day 10 post-treatment
From the text: The efficacy data collected during the study were changes in viral load and CD4 counts over time. The safety data collected during the study were serious adverse events (SAEs)/adverse events (AEs) and changes in laboratory parameters (hematology, chemistry), physical exam, viral tropism and ECGs over time.
(§6) All patients were screened prior to the study for the presence of virus that utilizes only CCR5 as the entry coreceptor., i.e., CCR5-tropic virus.
The primary efficacy endpoint was the reduction in plasma HIV RNA level as measured by the Roche Amplicor™ Assay. The primary efficacy endpoint is the maximum change from baseline in viral load, defined as HIV-1 copies/ml, as measured by the Roche Amplicor™ Assay.

[2] = Phase 1b clinical trial: safety, immunogenicity, RANTES, coreceptor tropism (Trofile); format: in vivo, human
From the text: as §6
Where no CXCR4-using clones are identified in a pre-dose sample from a subject, the on-treatment CXCR4-using virus can be identified as being phylogenetically very distant from the CCR5 tropic baseline virus; in such a case, the emergence of a pre-dose or pre-treatment CXCR4-using virus, i.e., one that is present at baseline, but is not detected, may likely explain the D/M tropism in the subject, as opposed to a tropism switch.

HIV-1 = conditions: Olson et al., 1999; Trkola et al., 2001; cited from earlier work
[3] = HIV-1 JR-FL, R5, median, current study n = 5
[4] = JR-FL, current study n = 5, mean
[5] = Median line of the five R5 HIV-2 isolates

B1: PRO 140: humanized IgG4,κ anti-CCR5 monoclonal antibody, humanized version of murine mAb PA14 (antibody, chains of the INN, looked up, V domains shown)
VH: EVQLVESGGGLVKPGGSLRLSCAASGYTFSNYWIGWVRQAPGKGLEWIGDIYPGGNYIRNNEKFKDKTTLSADTSKNTAYLQMNSLKTEDTAVYYCGSSFGSNYVFAWFTYWGQGTLVTVSS
VL: DIVMTQSPLSLPVTPGEPASISCRSSQRLLSSYGHTYLHWYLQKPGQSPQLLIYEVSNRFSGVPDRFSGSGSGTDFTLKISRVEAEDVGVYYCSQSTHVPLTFGQGTKVEIK
R5 HIV-1 JR-FL; [3]
  EC50 (median): 0.09 µg/mL
  EC90 (median): 7.0 µg/mL
R5 HIV-1 JR-FL; [4]
  EC50 (mean): <0.97 µg/mL
  EC90 (mean): 22 µg/mL
R5 HIV-1 JR-FL; R5 HIV-1 JR-FL, individual assays (Source)
  MPI (maximum percent inhibition): 100% and 103% and 101% and 110%
R5 HIV-1 JR-FL; R5 HIV-1 JR-FL, median of assays with R^2 >= 0.7
  MPI, Median: 102%
R5 HIV-2 A2267; HIV-2 A2267, R5
  EC50 (median): 0.10 µg/mL
  EC90 (median): 98 µg/mL
R5 HIV-2 A2267; R5 HIV-2 A2267, individual assays (Source)
  MPI (maximum percent inhibition): 97% and 115% and 88% and 94% and 75%
R5 HIV-2 A2267; R5 HIV-2 A2267, median of assays with R^2 >= 0.7
  MPI, Median: 94%
R5X4 HIV-2 310342
  EC50 (median): >100 µg/mL
  EC90 (median): >100 µg/mL
R5 HIV-2 isolates; [5]
  EC50, median over the R5 HIV-2 isolates: 0.12 µg/mL
  EC90, median over the R5 HIV-2 isolates: 21 µg/mL
R5 HIV-2 isolates; maximum percent inhibition
  median MPI against the R5 HIV-2 isolates: 96%
R5 HIV-2 isolates; median, all R5 HIV-2 viruses
  MPI, Median Values, all R5 HIV-2 Viruses: 96%
R5X4 HIV-2 isolates
  effect on replication of R5X4 HIV-2 isolates: did not measurably inhibit replication; also recorded: Neither PRO 140 nor PA14 had any measurable effect on replication
[1]; 2.0 mg/kg and 5.0 mg/kg dose levels
  individual viral load reductions ranging up to: up to 2.5 log10 and ≤ 99.7%
[1]; 5 mg/kg
  Maximum decrease of viral load at any time: −1.8 log
  Patients with <400 copies/mL (anytime): 4/10
  Patients with >1 log decrease (anytime): 10/10
  viral load decrease at day 22: −0.73
[1]; 5.0 mg/kg cohort
  time to suppression of mean viral load by 1.0 log10 (90%): within four days
  time viral load persisted at or below the 1.0 log10 level of reduction: two to three weeks
[1]; 0.5 mg/kg
  Mean log10 HIV RNA change: −0.37 log10
[1]; 2.0 mg/kg
  Mean log10 HIV RNA change: −1.04 log10
[1]; 5.0 mg/kg
  Mean log10 HIV RNA change: −1.70 log10
[1]; highest dose cohort
  response rate (percentage of patients with a ≧1 log10 decrease in HIV RNA at any time): 100%
[2]; PRO 140 subjects (0.5 mg/kg group, day 8 only)
  subjects with dual/mixed tropism result post-treatment: 1/30
[2]; Phase 1b
  dose-limiting toxicity: No dose-limiting toxicity or obvious pattern of toxicity
  plasma RANTES (CCL5) chemokine levels: No change in plasma RANTES (CCL5) chemokine levels
  treatment related SAEs: No treatment related SAEs
[2]; all study groups (0.5, 2.0, 5.0 mg/kg)
  tolerability: well-tolerated
HIV-1
  IC90: about 4 μg/ml
